In patent US20170306014A1 (INNATE PHARMA, published 2017):

Assays:
[1] = target: T1, Human Siglec-9 (human, UniProt Q9Y336 18-463); assay: flow cytometry on Siglec-9-expressing cell line
T1 construct: Expressed on CHO cells (huSiglec-9-expressing CHO cell line); also called huSiglec-9; CD329

[2] = target: T2, Human Siglec-5 (human, UniProt O15389 17-551); assay: flow cytometry on CHO HuSiglec-5 cell line
T2 construct: CHO HuSiglec-5 cell line; also called HuSiglec-5
T2 sequence: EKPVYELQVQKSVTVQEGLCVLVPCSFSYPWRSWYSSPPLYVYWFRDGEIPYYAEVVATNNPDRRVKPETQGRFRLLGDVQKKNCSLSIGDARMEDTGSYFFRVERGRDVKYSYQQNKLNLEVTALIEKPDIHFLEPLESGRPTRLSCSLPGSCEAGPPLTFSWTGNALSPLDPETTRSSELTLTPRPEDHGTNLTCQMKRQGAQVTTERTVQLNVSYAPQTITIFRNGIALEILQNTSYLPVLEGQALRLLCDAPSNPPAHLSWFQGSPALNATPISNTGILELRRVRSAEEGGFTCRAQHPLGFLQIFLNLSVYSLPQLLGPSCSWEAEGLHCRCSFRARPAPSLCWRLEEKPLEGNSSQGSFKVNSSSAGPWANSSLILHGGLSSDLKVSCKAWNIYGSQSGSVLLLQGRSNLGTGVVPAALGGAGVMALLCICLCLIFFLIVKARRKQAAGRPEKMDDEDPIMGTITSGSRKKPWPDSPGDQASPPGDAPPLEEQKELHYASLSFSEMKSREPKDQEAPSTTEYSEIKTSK
Description: (§1) Cells expressing Siglec-3, -5, -6, -8, -10, -11 and -12 were generated and a representative subset of the cross-reactive Siglec-7/9 antibodies were tested by flow cytometry for binding to the cells. Amino acid sequences and Genbank references for Siglec polypeptides used are shown below in Table 1.
(§2) Briefly, HuSiglec-expressing CHO cell lines (that expressed one of the Siglecs) were used.

[3] = target: T3, Human Siglec-12 (human, UniProt Q96PQ1 19-595); assay: flow cytometry on CHO HuSiglec-12 cell line
T3 construct: CHO HuSiglec-12 cell line; also called HuSiglec-12
Description: as §1, §2

[4] = target: T4, Human Siglec-6 (human, UniProt O43699 27-453); assay: flow cytometry on CHO HuSiglec-6 cell line
T4 construct: CHO HuSiglec-6 cell line; also called HuSiglec-6
Description: as §1, §2

[5] = target: T5, Human Siglec-11 (human, UniProt Q96RL6 29-698); assay: flow cytometry on CHO HuSiglec-11 cell line
T5 construct: CHO HuSiglec-11 cell line; also called HuSiglec-11
T5 sequence: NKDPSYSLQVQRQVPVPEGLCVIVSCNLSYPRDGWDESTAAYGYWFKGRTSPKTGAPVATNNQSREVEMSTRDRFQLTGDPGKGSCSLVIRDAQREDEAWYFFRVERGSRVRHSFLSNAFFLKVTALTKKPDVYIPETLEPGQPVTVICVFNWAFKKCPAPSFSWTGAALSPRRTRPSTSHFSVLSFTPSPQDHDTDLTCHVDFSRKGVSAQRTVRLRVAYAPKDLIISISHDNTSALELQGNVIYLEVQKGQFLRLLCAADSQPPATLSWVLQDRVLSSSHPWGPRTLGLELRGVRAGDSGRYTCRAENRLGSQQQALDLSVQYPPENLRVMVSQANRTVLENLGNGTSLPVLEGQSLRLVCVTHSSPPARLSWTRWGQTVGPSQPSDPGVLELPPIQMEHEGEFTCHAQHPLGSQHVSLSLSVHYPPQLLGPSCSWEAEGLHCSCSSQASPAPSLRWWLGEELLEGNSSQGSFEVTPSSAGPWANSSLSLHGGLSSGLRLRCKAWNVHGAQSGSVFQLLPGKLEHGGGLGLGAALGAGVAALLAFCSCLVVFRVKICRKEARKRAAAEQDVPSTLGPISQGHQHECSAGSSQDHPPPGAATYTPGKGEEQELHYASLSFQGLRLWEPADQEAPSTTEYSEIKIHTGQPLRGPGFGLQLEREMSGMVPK
Description: as §1, §2

[6] = target: T6, Human Siglec-3 (human, UniProt P20138 18-364); assay: flow cytometry on CHO HuSiglec-3 cell line
T6 construct: CHO HuSiglec-3 cell line; also called HuSiglec-3; CD33
Description: as §1, §2

[7] = target: T7, Human Siglec-8 (human, UniProt Q9NYZ4 17-499); assay: flow cytometry on CHO HuSiglec-8 cell line
T7 construct: CHO HuSiglec-8 cell line; also called HuSiglec-8
Description: as §1, §2

[8] = target: T8, Human Siglec-7 (human, UniProt Q9Y286 19-467); assay: flow cytometry on Siglec-7-expressing cell line
T8 construct: Expressed on CHO cells (huSiglec-7-expressing CHO cell line); also called huSiglec-7; CD328

[9] = target: T9, Human Siglec-10 (human, UniProt Q96LC7 17-697); assay: flow cytometry on CHO HuSiglec-10 cell line
T9 construct: CHO HuSiglec-10 cell line; also called HuSiglec-10
T9 sequence: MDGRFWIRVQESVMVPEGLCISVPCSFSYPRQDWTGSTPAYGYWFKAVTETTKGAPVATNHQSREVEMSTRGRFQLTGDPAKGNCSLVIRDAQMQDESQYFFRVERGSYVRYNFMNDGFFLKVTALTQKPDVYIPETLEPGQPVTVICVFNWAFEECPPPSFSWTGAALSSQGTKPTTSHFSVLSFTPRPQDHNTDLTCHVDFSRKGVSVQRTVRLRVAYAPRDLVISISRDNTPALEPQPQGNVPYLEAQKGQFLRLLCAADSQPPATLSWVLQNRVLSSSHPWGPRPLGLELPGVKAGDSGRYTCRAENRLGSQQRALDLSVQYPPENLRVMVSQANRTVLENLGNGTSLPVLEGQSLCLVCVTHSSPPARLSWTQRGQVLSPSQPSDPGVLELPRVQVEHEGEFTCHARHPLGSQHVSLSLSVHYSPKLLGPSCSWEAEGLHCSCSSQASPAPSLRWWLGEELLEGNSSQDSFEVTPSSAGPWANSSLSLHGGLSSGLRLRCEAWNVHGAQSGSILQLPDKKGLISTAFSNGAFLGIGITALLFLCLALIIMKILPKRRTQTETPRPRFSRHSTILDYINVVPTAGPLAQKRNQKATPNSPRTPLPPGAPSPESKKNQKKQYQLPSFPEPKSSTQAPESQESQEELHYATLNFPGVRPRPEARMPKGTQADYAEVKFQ
Description: as §1, §2

T8 sequence (Q9Y286 19-467): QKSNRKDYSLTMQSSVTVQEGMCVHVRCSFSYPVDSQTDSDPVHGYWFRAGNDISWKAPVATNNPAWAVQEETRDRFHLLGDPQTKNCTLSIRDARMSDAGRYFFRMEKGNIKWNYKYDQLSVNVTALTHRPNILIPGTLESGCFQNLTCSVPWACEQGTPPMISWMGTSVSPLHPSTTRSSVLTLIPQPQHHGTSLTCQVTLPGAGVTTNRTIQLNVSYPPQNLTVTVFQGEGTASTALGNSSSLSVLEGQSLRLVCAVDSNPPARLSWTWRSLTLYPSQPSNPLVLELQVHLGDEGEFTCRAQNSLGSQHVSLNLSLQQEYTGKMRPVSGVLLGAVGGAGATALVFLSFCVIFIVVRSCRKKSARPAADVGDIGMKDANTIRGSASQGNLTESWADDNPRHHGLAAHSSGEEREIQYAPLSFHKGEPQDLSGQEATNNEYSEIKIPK
T7 sequence (Q9NYZ4 17-499): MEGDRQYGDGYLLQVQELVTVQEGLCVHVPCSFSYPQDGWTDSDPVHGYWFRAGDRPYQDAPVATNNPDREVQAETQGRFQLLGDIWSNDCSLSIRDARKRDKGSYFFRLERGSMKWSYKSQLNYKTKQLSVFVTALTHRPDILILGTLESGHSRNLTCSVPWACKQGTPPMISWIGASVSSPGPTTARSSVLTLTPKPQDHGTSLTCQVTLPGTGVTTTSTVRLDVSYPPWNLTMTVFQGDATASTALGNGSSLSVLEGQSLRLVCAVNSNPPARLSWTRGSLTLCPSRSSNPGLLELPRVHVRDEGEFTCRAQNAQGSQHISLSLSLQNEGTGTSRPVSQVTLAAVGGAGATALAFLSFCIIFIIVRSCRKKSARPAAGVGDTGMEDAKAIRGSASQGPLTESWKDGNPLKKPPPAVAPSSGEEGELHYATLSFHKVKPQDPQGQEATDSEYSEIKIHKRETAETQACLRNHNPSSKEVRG
T4 sequence (O43699 other isoform, or with tags, fused parts or gaps): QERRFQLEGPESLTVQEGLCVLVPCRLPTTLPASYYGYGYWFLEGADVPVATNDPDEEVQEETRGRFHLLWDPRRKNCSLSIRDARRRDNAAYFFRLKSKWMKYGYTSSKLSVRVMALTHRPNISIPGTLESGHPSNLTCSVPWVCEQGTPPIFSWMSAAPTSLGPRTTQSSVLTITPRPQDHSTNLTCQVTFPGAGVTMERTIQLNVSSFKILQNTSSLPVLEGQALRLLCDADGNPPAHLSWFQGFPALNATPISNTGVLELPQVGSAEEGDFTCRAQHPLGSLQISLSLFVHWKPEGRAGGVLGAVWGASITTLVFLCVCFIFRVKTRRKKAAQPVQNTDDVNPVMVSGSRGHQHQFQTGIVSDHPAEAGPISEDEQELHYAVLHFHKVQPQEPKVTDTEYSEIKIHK
T6 sequence (P20138 18-364 R69G): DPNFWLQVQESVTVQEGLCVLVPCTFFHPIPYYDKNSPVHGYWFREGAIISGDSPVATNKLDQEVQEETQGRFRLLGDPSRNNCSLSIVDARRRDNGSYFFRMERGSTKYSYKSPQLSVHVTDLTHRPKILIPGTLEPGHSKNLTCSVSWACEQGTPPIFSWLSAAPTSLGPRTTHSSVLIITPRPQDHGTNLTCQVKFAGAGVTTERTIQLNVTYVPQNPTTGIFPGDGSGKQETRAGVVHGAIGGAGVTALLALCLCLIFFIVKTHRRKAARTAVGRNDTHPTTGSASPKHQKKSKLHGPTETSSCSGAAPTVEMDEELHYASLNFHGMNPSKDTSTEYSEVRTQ
T1 sequence (Q9Y336 18-463): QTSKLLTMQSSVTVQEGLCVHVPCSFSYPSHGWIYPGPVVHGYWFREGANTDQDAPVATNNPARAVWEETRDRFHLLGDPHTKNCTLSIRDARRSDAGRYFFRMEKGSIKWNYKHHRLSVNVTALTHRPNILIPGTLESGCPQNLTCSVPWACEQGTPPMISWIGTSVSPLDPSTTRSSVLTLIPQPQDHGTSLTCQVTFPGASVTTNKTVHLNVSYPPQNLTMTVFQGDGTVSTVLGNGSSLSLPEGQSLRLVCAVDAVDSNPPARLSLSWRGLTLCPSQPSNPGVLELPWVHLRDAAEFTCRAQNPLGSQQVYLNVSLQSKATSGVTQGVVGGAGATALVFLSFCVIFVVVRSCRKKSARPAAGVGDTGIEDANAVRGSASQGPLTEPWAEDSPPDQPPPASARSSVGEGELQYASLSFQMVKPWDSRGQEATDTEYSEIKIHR
T3 sequence (Q96PQ1 19-595): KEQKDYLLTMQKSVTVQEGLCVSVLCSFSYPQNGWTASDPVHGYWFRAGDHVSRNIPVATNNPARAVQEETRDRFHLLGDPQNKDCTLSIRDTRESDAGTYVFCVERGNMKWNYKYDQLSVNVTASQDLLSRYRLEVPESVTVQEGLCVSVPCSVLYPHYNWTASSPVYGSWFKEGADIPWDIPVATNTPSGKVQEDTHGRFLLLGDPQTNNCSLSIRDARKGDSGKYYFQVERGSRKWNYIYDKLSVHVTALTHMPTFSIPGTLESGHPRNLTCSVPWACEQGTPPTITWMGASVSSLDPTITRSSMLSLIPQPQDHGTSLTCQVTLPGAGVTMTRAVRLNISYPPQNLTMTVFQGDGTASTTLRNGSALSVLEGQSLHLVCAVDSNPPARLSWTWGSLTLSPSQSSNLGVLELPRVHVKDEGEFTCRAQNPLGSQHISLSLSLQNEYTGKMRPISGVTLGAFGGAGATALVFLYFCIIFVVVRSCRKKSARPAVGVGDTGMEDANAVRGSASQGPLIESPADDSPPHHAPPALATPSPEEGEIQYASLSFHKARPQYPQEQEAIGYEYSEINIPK

B1: antibody 3A11 (antibody, V domains shown)
VH: EVQLQQSGTVLARPGASVKMSCKASGYSFTSYWMHWVKQRPGQGLEWIGAIYPGNSDTSYNQKFKDKAKLTAVTSASTAYMELSSLTNEDSAVYYCTTYYRYDGGFDYWGQGTTLTVSS
VL: DIQMTQSPKSMSMSVGERVTLSCKASETVGTYVSWYQQKPEQSPKLLIFGASNRNTGVPDRFTGSGSATDFTLTISSVQAEDLADYHCGQSYNYPYTFGGGTKLEIK
notes: Raised in Balb/c mice; hybridoma supernatants were screened with goat anti-mouse detection, and selected antibodies were also made as chimeric human IgG1 (also with N297Q); also called mAb 3A11
binding result [1]: binds
binding result [2]: no binding
binding result [3]: no binding
binding result [4]: no binding
binding result [5]: no binding
binding result [6]: no binding
binding result [7]: no binding
binding result [8]: binds
binding result [9]: no binding

B2: antibody 2B4 (antibody, V domains shown)
VH: EVQLQQSGTVLARPGASVKMSCKASGYSFTNYWMHWVKQRPGQGLEWIGAIYPGNSDTSYIQKFKGKAKLTAVTSASTAYMELSSLTNEDSAVYYCTTYYRYDGGFDYWGQGTTLTVSS
VL: DIVMTQSPKSMSMSVGERVTLSCKASENVDTYVSWYQQKPDQSPKLLLYGASNRNTGVPDRFTGSGSATDFTLTISNVQAEDLADYHCGQSYSQPYTFGGGTKLEIK
notes: Mouse-derived; also called mAb 2B4
binding result [1]: binds
binding result [2]: no binding
binding result [3]: no binding
binding result [4]: no binding
binding result [5]: no binding
binding result [6]: no binding
binding result [7]: no binding
binding result [8]: binds
binding result [9]: no binding

B3: antibody 1H9 (antibody, V domains shown)
VH: QVQLQQSGAELVRPGASVKLSCKAMGNTFTDYEMHWVKQTPVHGLEWIGAIHPGSGGTVYNQKFRGKAALTADKSSSTAYMELSSLTSEDSAVYYCTREVSGTVYWGQGTTLTVSS
VL: DIVMTQAAFSNPVTLGTSASISCRSSKSLLHSNGITYLFWYLQKPGQSPQLLIYQMSNLASGVPDRFSSSGSGTDFTLRISRVEAEDVGVYYCAQNLELPWTFGGGTKLEIK
notes: Mouse-derived; also called mAb 1H9
binding result [1]: binds
binding result [2]: no binding
binding result [3]: no binding
binding result [4]: no binding
binding result [5]: no binding
binding result [6]: no binding
binding result [7]: no binding
binding result [8]: binds
binding result [9]: no binding
